According to the supplement of paper PMC9170038:

Test system: MS2 coat protein
Experiment: apparent KD of MS2 coat protein; designed switch direction (-1 OFF switch, 1 ON switch): -1; higher = weaker reporter binding
Summary of the method: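 Three titration conditions were used: no input, 200 uM small-molecule ligand, and an oligonucleotide input. In each, SNAP-549-labelled MS2 coat protein was raised from 0.7 or 1.5 nM, doubling, to 3 µM over designed RNA switches transcribed on Illumina chips by stalled E. coli RNA polymerase. Curve fits of normalised cluster fluorescence gave values whose per-design median over clusters is the apparent KD.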

[1] = Eterna round: R95, input ligand: FMN 200 uM
[2] = Eterna round: R95, input ligand: microRNA oligo, concentration not stated
[3] = Eterna round: R95, input ligand: none
[4] = input ligand: microRNA oligo, concentration not stated

Sequence | apparent KD of MS2 coat protein (input ligand: FMN 200 uM) [nM] | apparent KD of MS2 coat protein (input ligand: none) [nM] | apparent KD of MS2 coat protein [1] [nM] | apparent KD of MS2 coat protein [2] [nM] | apparent KD of MS2 coat protein [3] [nM] | apparent KD of MS2 coat protein [4] [nM]
AUUAUGUUAGGAUAUGCUUAUGGUGGAUAGUCCAAUGUGGUGCAGAAGGGACAUGAGGAUCACCCAUGUGCUGA [EX4 #30] (Eterna round: R97, puzzle: Exclusion 4) | 92.3 | 57.5 |  |  |  | 
AUUAUUUAAGUCAGGAUAUCGUAUUUAAUUAAAUACGAGAAGGGACAUGAGGAUCACCCAUGUAAUAAAUUUUA [JMFs Solution 1] (puzzle: Brourd's mod of Exclusion 4) |  |  | 24.1 | 14.2 | 15.9 | 
AUUAUUUCAGGAUAUGCCUUCAAAGACAUGAGGAUCACCCAUGUUUUCAGUGGCAGGAUCGCAGAAGGGAGAUAUU [EX5 C.29] (Eterna round: R97, puzzle: Exclusion 5) | 15.6 | 14.4 |  |  |  | 
AUUGGACACUCAGGAUAUCAGGUUCUAUACAUGAGGAUCACCCAUGUGGGCGAACCCAUGAUAGCUGAGAAGGGAGUAAUCCUA [Orxete] (Eterna round: R96, puzzle: Exclusion NG 2) | 39 | 19.4 |  |  |  | 11.9
AUUGUAUGGGAAGGAUAUAGAAUAUUAUUUUAACAUGAGGAUCACCCAUGUAACCUUAUGUGUAGCUAGAAGGUCCGUUUGUUA [Title] (Eterna round: R96, puzzle: Exclusion NG 2) |  |  |  |  |  | 269
AUUGUGUGAGGAUAUUAAUAGUAAAUGAAUAGAAUUAUGAUUGAGAAGGCACAUGAGGAUCACCCAUGUUCCUU [JR_Ex4_Sub081] (Eterna round: R97, puzzle: Exclusion 4) | 17.8 | 19.6 |  |  |  | 
AUUGUGUUAGGAUAUGCUUAUGGUGGGUAGUCCAGUAUGAAGUAGAAGGGACAUGAGGAUCACCCAUGUGCUGA [EX4 #36] (Eterna round: R97, puzzle: Exclusion 4) | 136 | 164 |  |  |  | 
AUUUAAUUUAAUAAGAUCACAUGAGGAUCACCCAUGUUAUAAUAGGAUAUCAGCUCGUUUAGAGCUGAGAAGGAUUAUAACAUG [ExNG3/9-A2] (Eterna round: R96, puzzle: Exclusion NG 3) | 31.8 | 7.21 |  |  |  | 20.8
AUUUAAUUUAGCGAGAUCACAUGAGGAUCACCCAUGUAUAUAUAGGAUAUCAGCUCGAAUAGAGCUGAGAAGGAUAUAUACCGC [ExNG3/7-A4] (Eterna round: R96, puzzle: Exclusion NG 3) |  |  |  |  |  | 76.7
AUUUAGAGAGGAUAUAUAAUGUGAAACAUGAGGAUCACCCAUGUAAUAUUAUGGAUGUAAAUAGAAGGCUCAUUUA [Mat - Exclusion 5 - JL mod - D5] (puzzle: Exclusion 5) |  |  |  | 30.2 |  | 
AUUUAGCAAGUUAGAUCCUACAUGAGGAUCACCCAUGUUGUUCGUCUCAUUUGAAGACAACACAAAAGUGUUGUCUU [Omei Mir OFFv1 B4] (Eterna round: R97, puzzle: Sensor, turn-off variant 1) | 112 | 126 |  |  |  | 
AUUUAGCGAGGAUAUACCAACGUGAUCUUCGACUGAGCGGCACUUGAGGAUCACCCAAGUAGAAGGCGCACUAU [Onleindian] (Eterna round: R97, puzzle: Exclusion 2) | 346 | 207 |  |  |  | 
AUUUGCACGCUGCGGUCCUACAUGAGGAUCACCCAUGUGGUCUGGUGGCGUGGGUCGCCGGACUUGGCUCGUCUUGU [salish99_S_TOV1_R5_033] (Eterna round: R97, puzzle: Sensor, turn-off variant 1) | 18.7 | 19.5 |  |  |  | 
AUUUUAUAUGAAGGAUAUACUUAACAUGAGGAUCACCCAUGUGGUGUUGUGAGUGAGUGAGUUUAGUAGAAGGUCAAUUAUUUU [JMF's solution 32] (Eterna round: R96, puzzle: Exclusion NG 2) | 781 | 257 |  |  |  | 167
AUUUUGUCAGGAUAUGAGUAGUAGGAUGAGAGUGCUACUACUUAGAAGGGACAUGAGGAUCACCCAUGUCUUCC [Bring Us a Shrubbery-06] (puzzle: Exclusion 4) |  |  |  | 13.8 |  | 
AUUUUGUGAGGAUAUGUGGCUUCGAUCGUAAAAACGAGGCUACAGAAGGCACAUGAGGAUCACCCAUGUUCCUA [salish99_ex4_r4_119] (Eterna round: R97, puzzle: Exclusion 4) | 194 | 24 |  |  |  | 
CAAAACCUAGGAUAUACAUGAGGAUCACCCAUGUCGGGCCUACGCGAAACGCGCCUCAGUAGAAGGAGGGAAAC [Riri] (puzzle: Exclusion 3) |  |  | 180 | 46.8 | 70.5 | 

Sequence | apparent KD of MS2 coat protein (input ligand: FMN 200 uM) [nM] | apparent KD of MS2 coat protein (input ligand: none) [nM] | apparent KD of MS2 coat protein [1] [nM] | apparent KD of MS2 coat protein [2] [nM] | apparent KD of MS2 coat protein [3] [nM] | apparent KD of MS2 coat protein [4] [nM]
CAAAAGGUAGGAUAUACGAAAAAAAAGGGUAGAAAAAAAACACAUGAGGAUCACCCAUGUAGAAGGACCAAAAG [salish99_ex2_r3_053] (puzzle: Exclusion 2) |  |  | 71.2 | 24.9 | 22.2 | 
CAAGAAAAGAAAGGAUAUAGCGCGGAGCCGCAGCUAGAAGGUUCGGUGGGUAUCCUGUAACAUGAGGAUCACCCAUGUAAAGAG [Texelara] (Eterna round: R96, puzzle: Exclusion NG 1) | 499 | 527 |  |  |  | 109
CAAUAUUACUGAGGAUAUCCUAUUGUAUUUCAGGGAGAAGGCAGACUCAACAUGAGGAUCACCCAUGUAAGACGGGUACUAGAU [Ex NG1 #18] (Eterna round: R96, puzzle: Exclusion NG 1) | 97 | 98.2 |  |  |  | 77.4
CACAAGCUUUUUUGUUGCUUUUUAGUUGGUGUAUGAUAAACAUGAGGAUCACCCAUGUAAUAGAUGCUCGAUCUUUU [JR_SV3TOV2_Sub083] (puzzle: Sensor v3, turn-off variant 2) |  |  | 24.5 | 21.7 | 27 | 
CACCGUUACAGAGGAUAUGGUACAUGAGGAUCACCCAUGUAAUAAAUGAGAAUUUCGAAUGUAAUCCAGAAGGCUGGAAUCGGC [Ostricism 74 - Jieux - Exclusion NG 2] (Eterna round: R96, puzzle: Exclusion NG 2) | 228 | 96.3 |  |  |  | 85.2
CACCGUUACCGAGGAUAUCGUACAUGAGGAUCACCCAUGUAAUAAAUGAGAAUUUCGGAUGUAUGCGAGAAGGCGGGAAUCGGC [Ostracism 35 - Jieux - Exclusion NG 2] (Eterna round: R96, puzzle: Exclusion NG 2) |  |  |  |  |  | 24.8
CACCGUUAGCGAGGAUAUCGUACAUGAGGAUCACCCAUGUAAUAAAUGAGAAUUUCGGAUGUAUGCGAGAAGGCGCGAAUCGGC [Ostracism 34 - Jieux - Exclusion NG 2] (Eterna round: R96, puzzle: Exclusion NG 2) |  |  |  |  |  | 36.6
CACCUGAACACAGGAUAUCCUACAUGAGGAUCACCCAUGUAAUAAAUGAGAAUUUCGAAUGUAAUGGAGAAGGGUGGAUAAGGC [Ostracism 89 - Jieux - Exclusion NG 2] (Eterna round: R96, puzzle: Exclusion NG 2) | 137 | 97.2 |  |  |  | 81.2
CACCUGAAUACAGGAUAUCCUACAUGAGGAUCACCCAUGUAAUAAAUGAGAAUUUCGAAUGUAAUGGAGAAGGGUAGAUAAGGC [Ostracism 88 - Jieux - Exclusion NG 2] (Eterna round: R96, puzzle: Exclusion NG 2) | 125 | 86.6 |  |  |  | 82.8
CACGAGCUAGGAUAUACAUGAGGAUCACCCAUGUAAGUCAUGCGGUCACAUCUGACAGGUAGAAGGAGCGCGUC [Teaertete] (puzzle: Exclusion 3) |  |  |  | 37.5 |  | 
CACUAACAUGAGGAUCACCCAUGUUAGGAUAUGCAGUUCGGCCAACGGGCCCGAACAUGUAGAAGGAACAGGGU [Eternabot (L2) Solution 44] (Eterna round: R97, puzzle: Exclusion 1) | 81.3 | 25.8 |  |  |  | 
CACUUACAUGAGGAUCACCCAUGUGAGGAUAUCGUGACCUGACGAGAAGUCAAUGUCACGAGAAGGUACAUGGG [Exclusion 1 (Mod 1 solution 97 by Eternabot)] (Eterna round: R97, puzzle: Exclusion 1) | 59.3 | 68.2 |  |  |  | 
CAGAAACAUGAGGAUCACCCAUGUGAGGAUAUGAAAAAGAAAAGAAAAGAAAGAAGAAUCAGAAGGCACAAAGU [salish99-ex1_r3_086] (puzzle: Exclusion 1) |  |  | 36.8 | 32.4 | 35.7 | 
CAGACACAUGAGGAUCACCCAUGUGAGGAUAUGCGUACGUUGUCCGUAGGCGACGUGCGCAGAAGGCGCAUAGG [JL-ex1-3.11 Eli mod] (puzzle: Exclusion 1) |  |  | 51.7 | 74.3 | 50.1 | 
CAGACGGCCGUAGGAUAUGCAGCAAAGACGUGAGCAGAAGGACGAUACAUGAGGAUCACCCAUGUACGUGGGUAGUGCGCAUGC [Veustean] (Eterna round: R96, puzzle: Exclusion NG 1) | 19.8 | 20.8 |  |  |  | 14.4
CAGCUGAAAGUGAGGAUAUCUAGAGCCUCGGCUCUAGAGAAGGCACAUGAGGAUCACCCAUGUGAUCACAGCUG [BmEx4/7-A2] (Eterna round: R97, puzzle: Brourd's mod of Exclusion 4) | 1320 | 307 |  |  |  | 
CAGGACAGAGGAUAUACAUAGAUACAGAUUCAUGUAGAACUACAUGAGGAUCACCCAUGUAGAAGGCUGUCCUG [Fiskers Ex 2 - 3] (Eterna round: R96, puzzle: Exclusion 2) | 370 | 33.5 |  |  |  | 25
